In PMC3477848 (Biochemistry, 2012):
Like-named read-outs stand apart in the source and are kept apart here.

What was measured:
Assay in all cases: fluorescence anisotropy
[1] = target: T1, Dpo4 (SsoDpo4, Y-family DNA polymerase) (Sulfolobus solfataricus, UniProt Q97W02 1-352)
T1 sequence: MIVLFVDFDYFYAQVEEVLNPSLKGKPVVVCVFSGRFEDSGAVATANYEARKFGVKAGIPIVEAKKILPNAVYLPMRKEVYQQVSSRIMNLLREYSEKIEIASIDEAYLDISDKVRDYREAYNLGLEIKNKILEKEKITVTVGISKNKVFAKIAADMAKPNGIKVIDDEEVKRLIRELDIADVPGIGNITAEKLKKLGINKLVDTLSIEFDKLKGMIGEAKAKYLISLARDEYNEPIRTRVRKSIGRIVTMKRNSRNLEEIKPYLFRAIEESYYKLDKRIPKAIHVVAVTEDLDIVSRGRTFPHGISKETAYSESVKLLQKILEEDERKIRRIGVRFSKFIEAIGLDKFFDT

[2] = target: T2, Dpo1 exo- (SsoDpo1, B-family DNA polymerase) (Sulfolobus solfataricus, UniProt P26811 1-882, D231A;D318A)
T2 sequence: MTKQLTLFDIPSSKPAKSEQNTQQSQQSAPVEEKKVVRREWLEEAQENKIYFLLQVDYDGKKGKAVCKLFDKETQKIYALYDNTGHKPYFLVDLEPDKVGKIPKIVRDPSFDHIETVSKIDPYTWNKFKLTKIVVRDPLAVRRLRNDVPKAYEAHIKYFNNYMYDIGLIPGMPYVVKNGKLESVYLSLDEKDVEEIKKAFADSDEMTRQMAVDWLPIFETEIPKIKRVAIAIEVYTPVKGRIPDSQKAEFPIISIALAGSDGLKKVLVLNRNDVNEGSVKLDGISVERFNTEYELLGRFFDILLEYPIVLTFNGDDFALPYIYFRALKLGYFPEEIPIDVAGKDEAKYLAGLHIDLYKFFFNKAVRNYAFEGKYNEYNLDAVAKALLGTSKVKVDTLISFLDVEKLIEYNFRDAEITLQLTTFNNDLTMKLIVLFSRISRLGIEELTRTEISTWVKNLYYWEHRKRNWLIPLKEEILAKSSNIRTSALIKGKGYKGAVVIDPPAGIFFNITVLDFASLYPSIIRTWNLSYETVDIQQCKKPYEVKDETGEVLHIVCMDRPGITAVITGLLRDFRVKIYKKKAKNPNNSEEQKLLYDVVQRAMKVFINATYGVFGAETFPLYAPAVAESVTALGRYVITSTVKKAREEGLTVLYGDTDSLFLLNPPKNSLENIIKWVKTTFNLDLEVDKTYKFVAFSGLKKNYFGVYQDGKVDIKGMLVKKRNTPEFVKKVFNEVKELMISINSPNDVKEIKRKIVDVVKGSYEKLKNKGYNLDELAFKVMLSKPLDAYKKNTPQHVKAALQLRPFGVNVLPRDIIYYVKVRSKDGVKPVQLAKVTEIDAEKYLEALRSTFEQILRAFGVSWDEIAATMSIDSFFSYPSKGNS

[3] = target: T2, Dpo1 exo- (SsoDpo1, B-family DNA …); remark: listed apart in the source
[4] = target: T1, Dpo4 (SsoDpo4, Y-family DNA polymerase); remark: listed apart in the source
[5] = target: T2, Dpo1 exo- (SsoDpo1, B-family DNA …); remark: listed apart in the source
[6] = target: T1, Dpo4 (SsoDpo4, Y-family DNA polymerase); remark: listed apart in the source
[7] = target: T2, Dpo1 exo- (SsoDpo1, B-family DNA …); remark: listed apart in the source

TTTTTTTTTTCCCGGGCCGGCGTTTCGCCGGCCCGGG (structured_DNA) [37-nt hairpin primer-template, 5'-Cy3]
Kd [1]: 214 ± 3 nM | Kd [2]: 170 ± 23 nM | Kd [3]: 198 ± 26 nM | Kd [4]: 125 ± 51 nM | Kd [5]: 144 ± 15 nM | Kd [6]: 155 ± 65 nM | Kd [7]: 97 ± 3 nM
